In article PMC4996945, “Crosstalk between MSH2–MSH3 and polβ promotes trinucleotide repeat expansion during base excision repair”:

Molecular target: MSH2;MSH3 (Homo sapiens;Homo sapiens, UniProt P43246;P20585 1-934;1-1137, |)
Assay: gel filtration; 1:1:1 OGG1, MSH2-MSH3, DNA; MSH2-MSH3-DNA peak; 10 mM HEPES pH 8.1, 110 mM NaCl, 1 mM DTT, 0.1 mg/ml BSA, 10% glycerol, 0.25% inositol, 5 mM Mg2+, 2 mM ATP, 2 mM ADP; on ice (EMSA 10 min, gel at 4 °C; footprint binding 15 min, DNase I at 37 °C); 25 nM DNA
Settings: protein: recombinant;recombinant; tags: ;His; copies: 1;1

B1: CAG-duplex (80) with one 8-oxo-G (dsDNA)
DNA 1: CAAGCACGTTGACTACCGTCCAGCAGCAGCAGCAGCAGCAGCAGCAGCAGCAGCAGCAGTTTGAGGCAGAGTCCGAACAC
DNA 2: GTGTTCGGACTCTGCCTCAAACTGCTGCTGCTGCTGCTGCTGCTGCTGCTGCTGCTGCTGGACGGTAGTCAACGTGCTTG
modifications: one 8-oxo-G (stated position 17, exact G not marked in text); complement not given
  binding result: binds
